Patent publication US20230338424A1 (LENTIGEN TECHNOLOGY, published 2023)

T1: recombinant human CD123-Fc (human, UniProt P26951 19-305, limits assumed)
T1 construct: Treated as one molecule; also called CD123-Fc peptide (Novoprotein); recombinant IL3R-alpha Fc-tagged; not shown: Fc tag
T1 sequence (looked up): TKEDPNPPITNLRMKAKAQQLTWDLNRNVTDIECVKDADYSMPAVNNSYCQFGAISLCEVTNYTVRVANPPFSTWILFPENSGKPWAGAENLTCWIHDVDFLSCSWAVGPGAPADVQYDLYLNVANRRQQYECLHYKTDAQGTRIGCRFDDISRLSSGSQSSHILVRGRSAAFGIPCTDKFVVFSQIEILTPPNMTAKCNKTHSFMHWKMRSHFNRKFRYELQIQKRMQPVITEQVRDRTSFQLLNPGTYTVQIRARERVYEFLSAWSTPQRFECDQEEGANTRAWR

B1: CAR D0134 CD123 MB44-H01 CD8 BBz (other)
chain: QVQLVQSGAEVKKPGSSVKVSCKASGGTFSSYAISWVRQAPGQGLEWMGGIIPIFGTANYAQRFQGRVTITADESTSTAYMELSSLRSEDTAVYYCARGLGTSYYYYYMDVWGKGTTVTVSSGGGGSGGGGSGGGGSQSVLTQPPSASGSPGQSVTISCTGTSSDVGGYNYVSWYQQHPGKAPKLMIYEVSNRPSGVSNRFSGSKSGNTASLTISGLQAEDEADYYCSSYTSSSTPVVFGGGTKLTVLAAATTTPAPRPPTPAPTIASQPLSLRPEACRPAAGGAVHTRGLDFACDIYIWAPLAGTCGVLLLSLVITLYCKRGRKKLLYIFKQPFMRPVQTTQEEDGCSCRFPEEEEGGCELRVKFSRSADAPAYQQGQNQLYNELNLGRREEYDVLDKRRGRDPEMGGKPRRKNPQEGLYNELQKDKMAEAYSEIGMKGERRRGKGHDGLYQGLSTATKDTYDALHMQALPPR
notes: Chimeric antigen receptor on transduced human primary T cells; also called EF-1a-CD123 MB44 -H01CD8 BBz
B2: CAR D0130 CD123 MB40-H08 CD8 BBz (other)
chain: QVQLVQSGAEVKKPGSSVKVSCKASGGTFSSYAISWVRQAPGQGLEWMGGIIPIFGTANYAQKFQGRVTITADESTSTAYMELSSLRSEDTAVYYCARNEWYSYYYYYMGVWGKGTTVTVSSGGGGSGGGGSGGGGSQSALTQPASVSGSPGQSITISCTGTSSDVGGYNYVSWYQQHPGKAPKLMIYEVSNRPSGVSNRFSGSKSGNTASLTISGLQAEDEADYYCSSYTSSSTLVVFGGGTKLTVLAAATTTPAPRPPTPAPTIASQPLSLRPEACRPAAGGAVHTRGLDFACDIYIWAPLAGTCGVLLLSLVITLYCKRGRKKLLYIFKQPFMRPVQTTQEEDGCSCRFPEEEEGGCELRVKFSRSADAPAYQQGQNQLYNELNLGRREEYDVLDKRRGRDPEMGGKPRRKNPQEGLYNELQKDKMAEAYSEIGMKGERRRGKGHDGLYQGLSTATKDTYDALHMQALPPR
notes: Chimeric antigen receptor on transduced human primary T cells; also called EF-1a-CD123 MB40-H08 CD8 BBz
B3: CAR D0132 CD123 MB42-E02 CD8 BBz (other)
chain: QVQLVQSGAEVKKPGASVKVSCKASGYTFTSYGISWVRQAPGQGLEWMGWISAYNGNTNYAQKLQGRVTMTTDTSTSTAYMELRSLRSDDTAVYYCARGAYYDFWSGYSWFDPWGQGTLVTVSSGGGGSGGGGSGGGGSQSVLTQPPSVSVAPGQTARIPCGGNNIGSKGVHWYQQKSGQAPVMVVYDDSDRPSGIPERFSGSNSGNTATLTISRVEAGDEADYYCQVWDSSGDLVLFGGGTKLTVLAAATTTPAPRPPTPAPTIASQPLSLRPEACRPAAGGAVHTRGLDFACDIYIWAPLAGTCGVLLLSLVITLYCKRGRKKLLYIFKQPFMRPVQTTQEEDGCSCRFPEEEEGGCELRVKFSRSADAPAYQQGQNQLYNELNLGRREEYDVLDKRRGRDPEMGGKPRRKNPQEGLYNELQKDKMAEAYSEIGMKGERRRGKGHDGLYQGLSTATKDTYDALHMQALPPR
notes: Chimeric antigen receptor on transduced human primary T cells; also called EF-1a-CD123 MB42-E02 CD8 BBz
B4: CAR D0133 CD123 MB42-E12 CD8 BBz (other)
chain: QVQLVQSGAEVKKPGASVKVSCKASGYTFTSYGISWVRQAPGQGLEWMGWISAYNGNTNYAQKLQGRVTMTTDTSTSTAYMELRSLRSDDTAVYYCARGAYYDFWSSYSWFDPWGQGTLVTVSSGGGGSGGGGSGGGGSSYVLTQPPSVSVAPGKTARITCGGNNIGSKSVHWYQQKPGQAPVLVVYDDSDRPSGIPERFSGSNSGNTATLTISRVEAGDEADYYCQVWDSSSDHVVFGGGTKLTVLAAATTTPAPRPPTPAPTIASQPLSLRPEACRPAAGGAVHTRGLDFACDIYIWAPLAGTCGVLLLSLVITLYCKRGRKKLLYIFKQPFMRPVQTTQEEDGCSCRFPEEEEGGCELRVKFSRSADAPAYQQGQNQLYNELNLGRREEYDVLDKRRGRDPEMGGKPRRKNPQEGLYNELQKDKMAEAYSEIGMKGERRRGKGHDGLYQGLSTATKDTYDALHMQALPPR
notes: Chimeric antigen receptor on transduced human primary T cells; also called EF-1a-CD123 MB42-E12 CD8 BBz
B5: CAR D0131 CD123 MB42-D03 CD8 BBz (other)
chain: QVQLVQSGAEVKKPGASVKVSCKASGYTFTSYGISWVRQAPGQGLEWMGWISAYNGNTNYAQKLQGRVTMTTDTSTSTAYMELRSLRSDDTAVYYCARGAYYDFWSSYSWFDPWGQGTLVTVSSGGGGSGGGGSGGGGSSYVLTQPPSVSVAPGKTARITCGGNSIGSKSVQWYQQKPGQAPVLVIYDDSDRPSGIPERFSGSNSGNTATLTISRVEAGDEADYYCQVWDSSSDVVFGGGTKLTVLAAATTTPAPRPPTPAPTIASQPLSLRPEACRPAAGGAVHTRGLDFACDIYIWAPLAGTCGVLLLSLVITLYCKRGRKKLLYIFKQPFMRPVQTTQEEDGCSCRFPEEEEGGCELRVKFSRSADAPAYQQGQNQLYNELNLGRREEYDVLDKRRGRDPEMGGKPRRKNPQEGLYNELQKDKMAEAYSEIGMKGERRRGKGHDGLYQGLSTATKDTYDALHMQALPPR
notes: Chimeric antigen receptor on transduced human primary T cells; also called EF-1a-CD123 MB42-D03 CD8 BBz; CAR123 D0131
B6: CAR LTG2078 CD123 M12306 CD8 BBz (other)
chain: EVQLVQSGSELKKPGASVKVSCKASGGTFSSYAISWVRQAPGQGLEWMGGIIPIFGTANYAQKFQGRVTITADESTSTAYMELSSLRSEDTAVYYCASTARRGWDTAGPLDYWGQGTLVTVSSGGGGSGGGGSGGGGSDIQMTQSPSSLSASVGDRVTIACRASQTISRYLNWYQQKPGKAPKLLIYAASSLQSGVSSRFSGSGSGTEFTLTISSLQPEDFATYFCQQTYSPPITFGQGTRLEIKAAATTTPAPRPPTPAPTIASQPLSLRPEACRPAAGGAVHTRGLDFACDIYIWAPLAGTCGVLLLSLVITLYCKRGRKKLLYIFKQPFMRPVQTTQEEDGCSCRFPEEEEGGCELRVKFSRSADAPAYQQGQNQLYNELNLGRREEYDVLDKRRGRDPEMGGKPRRKNPQEGLYNELQKDKMAEAYSEIGMKGERRRGKGHDGLYQGLSTATKDTYDALHMQALPPR
notes: Control chimeric antigen receptor on transduced human primary T cells; Leader (residues 1-22) left out; also called EF-1a CD123 CD8 BBz

molecular target: T1, recombinant human CD123-Fc; test: flow cytometry, CAR T cells stained with recombinant IL3R-alpha Fc-tagged, anti-Fc AF647
Experimental: Half million CAR T cells were washed two times in cold AutoMACS buffer supplemented with 0.5% bovine serum albumin (Miltenyi Biotec, Bergisch Gladbach, Germany) and stained with 2.5 ug/ml CD123-Fc peptide (Novoprotein, Summit, NJ), followed by anti Fc-AF647 conjugate (Jackson ImmunoResearch, West Grove, PA). The 7-Aminoactinomycin D staining (7-AAD, BD Biosciences, San Jose, CA) was added to exclude dead cells. Non-transduced cells (UTD) were used as a negative control. Cells were washed twice with AutoMACS buffer supplemented with 0.5% bovine serum albumin, resuspended in 200 ul staining buffer and acquired by flow cytometry. Flow cytometric analysis was performed on a MACSQuant® 10 Analyzer (Miltenyi Biotec), and data plots were generated using FlowJo software (Ashland, OR).
Lentiviral vectors encoding the CD123 CAR constructs were used for CAR transduction into human primary T cells at multiplicity of infection (MOI) of 40. CAR surface expression of transduced T cells by flow cytometry using recombinant IL3R-alpha Fc-tagged, followed by staining with anti-Fc Alexa Flour 647.

Binding result, binds:
B1, B2, B3, B4, B5, B6
